Measurements taken from publication PMC10992476, “Efficient production of salvianic acid A from L-dihydroxyphenylalanine through a tri-enzyme cascade” (Bioresources and Bioprocessing, 2023).

Assays:
[1] = biological target: phenylpyruvate reductase from Lactobacillus sp. CGMCC 9967 (LaPPR) (Lactobacillus sp. CGMCC 9967); experiment: crystal structure; apo-LaPPR wild type, sitting drop vapor diffusion, 20 °C, protein 28 mg/mL, 0.1 M citric acid pH 3.5, 14% w/v PEG 1000, 0.01 M beta-nicotinamide adenine dinucleotide; molecular replacement with PDB 3EVT
[2] = substrate: O=C(O)C(=O)Cc1ccc(O)c(O)c1; experiment: purified protein; assay type: biochemical, Lactobacillus sp. CGMCC 9967; details: 2 mM NADH, Tris-HCl 50 mM pH 7.0, 30 °C

| Molecule | stoichiometry N [1] | Km [2] [mM] | kcat [2] [s⁻¹] | kcat/Km [2] [M⁻¹ s⁻¹] |
| --- | --- | --- | --- | --- |
| phenylpyruvate reductase from Lactobacillus sp. CGMCC 9967 (LaPPR) (enzyme) | 2 |  |  |  |
| LaPPR (Lactobacillus sp. CGMCC 9967) (protein, homodimer) MMKILNSFSLKPEQRQTLEAAGHTVIDADKLDDATAQQIDVVYGWNAAATRVNFDRLQFVQAMSAGVDYLPLAELAKHHVLLANTSGIHAEPIAEYVLGALFTISRGILPAIRADRDMWTLRQERPPMTLLKGKTAVIFGTGHIGSTIATKLQALGLHTIGVSAHGRPAAGFDQVMTDVATHEAAGRADVVINALPLTPDTKHFYDEAFFAAASKQPLFINIGRGPSVDMAALTQALKNKQISAAALDVVDPEPLPQDSPLWGMTNVLLTPHISGTVPQLRDKVFKIFNDNLKTLISSGQLASHQVDLTRGY |  | 6.20 ± 0.15 | 1.21 ± 0.03 | 200 |
| LaPPR (Lactobacillus sp. CGMCC 9967; H143D/H89M/P256C) (protein, homodimer) MMKILNSFSLKPEQRQTLEAAGHTVIDADKLDDATAQQIDVVYGWNAAATRVNFDRLQFVQAMSAGVDYLPLAELAKHHVLLANTSGIMAEPIAEYVLGALFTISRGILPAIRADRDMWTLRQERPPMTLLKGKTAVIFGTGDIGSTIATKLQALGLHTIGVSAHGRPAAGFDQVMTDVATHEAAGRADVVINALPLTPDTKHFYDEAFFAAASKQPLFINIGRGPSVDMAALTQALKNKQISAAALDVVDPEPLCQDSPLWGMTNVLLTPHISGTVPQLRDKVFKIFNDNLKTLISSGQLASHQVDLTRGY |  | 2.52 ± 0.27 | 5.74 ± 0.24 | 2050 |
| LaPPR (Lactobacillus sp. CGMCC 9967; H143D/H89M) (protein, homodimer) MMKILNSFSLKPEQRQTLEAAGHTVIDADKLDDATAQQIDVVYGWNAAATRVNFDRLQFVQAMSAGVDYLPLAELAKHHVLLANTSGIMAEPIAEYVLGALFTISRGILPAIRADRDMWTLRQERPPMTLLKGKTAVIFGTGDIGSTIATKLQALGLHTIGVSAHGRPAAGFDQVMTDVATHEAAGRADVVINALPLTPDTKHFYDEAFFAAASKQPLFINIGRGPSVDMAALTQALKNKQISAAALDVVDPEPLPQDSPLWGMTNVLLTPHISGTVPQLRDKVFKIFNDNLKTLISSGQLASHQVDLTRGY |  | 3.63 ± 0.17 | 2.35 ± 0.12 | 650 |
| LaPPR (Lactobacillus sp. CGMCC 9967; H143D) (protein, homodimer) MMKILNSFSLKPEQRQTLEAAGHTVIDADKLDDATAQQIDVVYGWNAAATRVNFDRLQFVQAMSAGVDYLPLAELAKHHVLLANTSGIHAEPIAEYVLGALFTISRGILPAIRADRDMWTLRQERPPMTLLKGKTAVIFGTGDIGSTIATKLQALGLHTIGVSAHGRPAAGFDQVMTDVATHEAAGRADVVINALPLTPDTKHFYDEAFFAAASKQPLFINIGRGPSVDMAALTQALKNKQISAAALDVVDPEPLPQDSPLWGMTNVLLTPHISGTVPQLRDKVFKIFNDNLKTLISSGQLASHQVDLTRGY |  | 5.03 ± 0.14 | 2.08 ± 0.11 | 410 |
| LaPPR (Lactobacillus sp. CGMCC 9967; H89M) (protein, homodimer) MMKILNSFSLKPEQRQTLEAAGHTVIDADKLDDATAQQIDVVYGWNAAATRVNFDRLQFVQAMSAGVDYLPLAELAKHHVLLANTSGIMAEPIAEYVLGALFTISRGILPAIRADRDMWTLRQERPPMTLLKGKTAVIFGTGHIGSTIATKLQALGLHTIGVSAHGRPAAGFDQVMTDVATHEAAGRADVVINALPLTPDTKHFYDEAFFAAASKQPLFINIGRGPSVDMAALTQALKNKQISAAALDVVDPEPLPQDSPLWGMTNVLLTPHISGTVPQLRDKVFKIFNDNLKTLISSGQLASHQVDLTRGY |  | 5.74 ± 0.08 | 1.37 ± 0.06 | 240 |
